Experimental data published in US5948653.

Biological target: RecA (Escherichia coli?) (UniProt P0A7G6)
Experiment: cell_activity

RecA (Escherichia coli?), sequence (P0A7G6 2-353): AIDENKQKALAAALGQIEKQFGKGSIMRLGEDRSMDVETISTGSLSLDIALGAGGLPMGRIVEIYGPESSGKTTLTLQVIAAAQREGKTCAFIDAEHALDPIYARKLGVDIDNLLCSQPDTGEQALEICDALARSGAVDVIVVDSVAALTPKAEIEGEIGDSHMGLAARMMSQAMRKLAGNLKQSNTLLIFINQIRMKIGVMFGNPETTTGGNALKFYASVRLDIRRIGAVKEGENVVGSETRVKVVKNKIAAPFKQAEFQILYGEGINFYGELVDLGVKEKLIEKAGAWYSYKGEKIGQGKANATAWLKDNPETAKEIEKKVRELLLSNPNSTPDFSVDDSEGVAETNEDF

Substance: CFTR 491-nt fragment (exon 10 and flanking introns) ; CFTR deltaF508 genomic locus
- activity (homologous replacement after microinjection of RecA-coated DNA): > 0.00025 frequency

Substance: lacZ 276-mer probe ; pMC1lacXpA
- activity (blue NIH3T3 cells (6/168), 0% without RecA, D-loop also seen on agarose gel): 3.6%
